The data set in a line: yeast display, Sf9 membrane polyspecificity reagent, FACS + sequencing; frameworks hold sequencing errors. The gist of the method: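 A synthetic nanobody library was expressed on Saccharomyces cerevisiae BJ5465 by galactose induction for 36–48 hours. The library was stained for 1 hour at 4 °C with 10% biotinylated, detergent-solubilized Sf9 membrane reagent and enriched with streptavidin microbeads before FACS. Low and high (top ~1%) gates were set on anti-HA fluorescence for expression and streptavidin fluorescence for reagent binding, and each polyreactivity label reflects the gate of origin.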
For “QVQLVESGGGLVQAGGSLRLSCAASGSIFQYYAMGWYRPAARKERELVAAISWSGGSTYYADSVKGRFTISRDNAKTTVSFLMNSLKPEDTAVYYCNARLYHLDYQGRIIRYDYWGQGTQVTESS”, the “polyreactivity (PSR sort gate)” value is reported as “high polyreactivity”.

For the sequence “QVQLVESGGGLVQAGGSLRLSCAASGRIFHSNAMGWYRQAPGKESELVADINRDGSTNYADSVKGRFTISRDNAKNTVYLQMNSLKPEDTAVYYCAKPYYSWPRYNHFEYWGQGTQVTVSS”, the “polyreactivity (PSR sort gate)” value is listed as “low polyreactivity”. Under “QVQLVESAAGLVQAGGSLRLSCAASGSTFGHYTMGWYRQAPGKERDLVAAISWSGGRTYYADSVKGRFTISRDYAKNTVYLQMNSLKPEDTAVYYCYVGYRGWSVNSWGQGTQVTVSS” stands “high polyreactivity”; under “QVQLVESGGGLVQAGGSLRLSCAASGSTFPYNTMGSYIQAPGKESELVATIRSRGDSTYFADSVKGRFTISRDNAKNTVYFQMNSLKPEDTAFYYCNADPRTLWWSRPYYSWGQGTQVTVSS”, “high polyreactivity”. Consider “QVQLVESGGGLVQAGGSLRLSCAASGRILRSNAMGWYRQAPGKERELVAAITSSGGSTRYADSVKGRFTISRDNAKNTVYLQMNSLKPEDTAVYYCAARYRQGFQAGHGYWGQGTQVTVSS”, for which the “polyreactivity (PSR sort gate)” value is “high polyreactivity”. For the sequence “QVKLVESGGGLVQAGGSLRLSCAASGRTFPRYAMGWYRQAPGKERELVAVIYGGGTYYADSVKGRFTISRDNAKNTVYLQMNSLKPEDTSVYYCNARSYQSARFRGGYWGQGTQVTVSS”, the “polyreactivity (PSR sort gate)” value is recorded as “high polyreactivity”.

Consider “QDQLVESGGGLVQAGCSLLLSCAASGRIFAKNAMVCYRQAPGKERELVATSSWSGSSTRYADSVKGRFTISRDYAKNSVYLQMNSLKPEDTAVYYCAARPTPRRTPYTATYDYWGQGTQVTVSS”, for which the “polyreactivity (PSR sort gate)” value is “high polyreactivity”. Consider “QVQLVESVGGLVQAGGSLRLSCAASGFILGYNAMGWYRQAPGKERELVADITFSGGGTNYADSVKGRFTISRDNAKNTVYLQMNSLKPEDTAVYDCNAAAFSQLRVRYDYWGQGTQVTVSS”, for which the “polyreactivity (PSR sort gate)” value is “low polyreactivity”. Regarding “QVQLVESGGGLVQAGGSLRLSCAASGRIFGVYAMGWYRQAPGKERELVAAISGSTTLTYYADSVKGRFTISRDTAKNTVDLQMNSLKPEDTAVYYCAARSYTPSYKMDYWGQGTKVTVSS”, the “polyreactivity (PSR sort gate)” value was “high polyreactivity”.

As for “QVQLVESGGGLVQAGGSLRLSCAASGRIFAYYAMGWYRQAPGTERELVAAISRSGVSTYYADSVKGRFTISRDNAKNTVYLQMNSLKPEDTAVYYCAAERYWTYYSGFVYGGDNYWGQGTQVTVSS”, the “polyreactivity (PSR sort gate)” value is on record as “low polyreactivity”.

In the case of “QVQLVESGGGLVQAGGSLRLSCAASGFTFWRNAMGWYRQAPGKERELVAAISSGTGRTYYADSVKGRFTISRDNAKNTVYLQMNSLKPEDTAVYYCAKVNGRTSYGTSTRDYWGQGTQVTVSS”, the “polyreactivity (PSR sort gate)” value was “low polyreactivity”. Consider “QVQLVESGGGLVQAGGSLRLSSAASGRNFSRYAMGWYRQAPGKERELVAAINKSGGSTYYADSVKGRFTISRDNAKNTVYLQMNSLKPEDSAFYYCNAVYYWYKGDYWGQGSQVTVSS”, for which the “polyreactivity (PSR sort gate)” value is “high polyreactivity”. For “QVQLVESGGGLVQAGGSLRLSCAASGSTFYFNAMGWYRQAPGKARELVAAIDWSGGSTYYADSVKGRFTISRDNAKNTVYLQMNSLKPEDTAVYYCAAPYHYYGNTVGYADYDYWGQGTQVTVSS” the value was “low polyreactivity”; for “QVQLVESGGGLVQAGGSLRLSCAASGNTFPRYVMGWYRQAPGKERELVADITRRGGSTYYADSVKGRFTISRDNAKNTVYLQMNSLKPEDTAVYYCAALYLYGHQFYNDYYYWGQGTQVTVSS”, “high polyreactivity”; for “QVQRVESGGGLVQAGGSLRLSCAASGSIFKYYTMGLYRPAPGKERELVAYISSGGSTKYADSVKGRFTNSRDNAKNTVYLQMNSLKPEDTAVYYCAKRYYYFYPDYDFLGQGTQVTVSS”, “high polyreactivity”. Take “QVQLVESGGGLVQAGGSLRLSCAASGSTFRLYAMGWYRQAPGKERELDAAISGSGGSTYYADSVKGRFTISRDYEKNTVYLQMNSLKPVDTAVYYCAAEVVRRYYAGRGYWGHGTQVTVSS”: the “polyreactivity (PSR sort gate)” value was “high polyreactivity”. Consider “QVQLVESGGGLVQAGGSLRLICAASGSIFITYAMGWSRPAPGKERELVAAIRDSGDRTYYADSVKGRFTISRDNAKNTVYLQMNSLKPEDTAVYYCNARWQERLKYDYWGQGTQVTVSS”, for which the “polyreactivity (PSR sort gate)” value is “low polyreactivity”. Regarding “QVQLVESGGGLVQAGGSLRLSCAASGSIFWNNAMGWYRQAPGKERELVAAISKSGTRTYYADSVKGRFTISRDNAKNTFYLQMNSLKPEDTAVYYCAKDPYGRLQPRPRFGYWGQGTQVTVSS”, the “polyreactivity (PSR sort gate)” value was “high polyreactivity”. With “QVQLVDSGGGLVQAGASLPLSCAASGATFYIYARGWNIQAPGKERELVAANTWSGGRTFYADSVKGRFTMSRDNAKNTDYLQMNSLKPEDTAVYYCANRVRTGSVGNFNYWGQGTQVNVSS”, the “polyreactivity (PSR sort gate)” value is “high polyreactivity”.

On to “QVQLVESGGGLVQAGGSLRLSCAASGITFHRYAMGWYRQAPGKERELVAGINGRGGSTYYADSVKGRFTISRDNAKNTVYLQMNSLKPEDTAVYYCNAVYAGRYFGFDYWGQGTQVTVSS”, for which the “polyreactivity (PSR sort gate)” value is reported as “high polyreactivity”. For “QVQLVESGGGLVQAGGSLRLSCAASGRIFARYAMGWYRQAPGKQRELVAAITVSGDNTYYADSVKGRFTISRDNAKNTVYLQMNSLKPEDTAVYYCAVRAVLLFGFFDYDYWGQGTQLTVSS” the value was “low polyreactivity”; for “QVQLVESGGGLVQAGGSLRLSCAASGFTFAFYAMGWYRQAPGKERELVAAITGSGGSTYYADSVKGRFTISRDNAKNTVYLQMNSLKPEDTAVYYCAADKYLDYDYWGQGTQVTVSS”, “high polyreactivity”; for “QVQLVESGGGLVQAGGSLRLSCAASGRIFPYNAMGWYRHAPGKERELVAAITWSGGRTYYADSVKGRFTISRDNAKNTVYLQMNSLKPEDTAVYYCAASYRGRTNDYWGQGTQVTVSS”, “high polyreactivity”. With “QVQLVESGGGLVQAGGSLRLSCAASGRTLSWYAMGWYRQAPGKERELVASISSGGGTYYADSVKGRFTISRDNAKNTVYLQMNSLKPEDTAVYYCAARYHYAKSPYRYYYWGQGTQVTVSS”, the “polyreactivity (PSR sort gate)” value is given as “high polyreactivity”. With “QVQLVESGGGLVQAGGSLRLSCAASGSIFYYNAMGWYRQAPGKERELDANISWNGASTYYADSVKGRFTISRDNAKNSVYLQMLSLKPEDTAVYYCATAGKGDPPWLPSEVTDYYYWGQGTQVTVSL”, the “polyreactivity (PSR sort gate)” value is listed as “low polyreactivity”. As for “QVQLVESGGGLVHAGGCLRLSCAASGRTFAPYAMGWYRLAPGKERELVAAINSGDRTYYADSVKGRFTLSRDNAKNTVNLQINSLKPEDTSGYYCSSDALAGQYTWYKYDYWGQGSQVTVSS”, the “polyreactivity (PSR sort gate)” value is “low polyreactivity”. As to “QVQLVESGGGLVQAGGSLRLSCAASGITFGRNTMGWSRQAPGKERELVAAIDSGANTYADSVKGRFTISSDNAKNTVYLQMISLKPEDSAVYYCAVDGGEFSSYGYWGQGTQVTVSW”, the “polyreactivity (PSR sort gate)” value is given as “low polyreactivity”.

Regarding “QVQLVESGGGLVQAGGSLRLSCAASGFIFNTNAMGWYRQAPGKERELVAGISRSGVRTYYADSVKGRFTISRDNAKNTVFLQMNSLKPEDTAVYYCAATSLPRYYYWGQGTQVTVSS”, the “polyreactivity (PSR sort gate)” value is on record as “low polyreactivity”. With “QVQLVESGGGLVKAGGSLRLSCAASGSIIKRYAMGWYRQARGKERELVAAITQSGGRTYYADSVKGRFTISRDNAKNTVYLQMNSLKPEDTAVYYCNAVRWYLYDYWGQGTQVTVSS”, the “polyreactivity (PSR sort gate)” value is reported as “high polyreactivity”. For “QVQLVESGGGLVQAGGSLRLSSAASGFTFSGYDMGWYRQAPGKERELVAGISSGGVSTTYADSVNGRFTISRDNAKNTVYLQMNSLKQEDTAVYYCNAEWTSFDWGQGTQVTVSS” the value was “low polyreactivity”; for “QVQLVESGGGLVQAGGSLRLSCAASGFTSWYAMGWYRQAPGKERELVAAISSGGSTNYADSVKGRFTISRDNAKNTVYLQLNSLKPEDTAVYYCNAEGYETGVPYFGFYFWGQGTQVTVSS”, “low polyreactivity”; for “QDQLVESGGGLVQAVGSLRLSCAASGSIFSFNAIGWYRQAPGKERELVAVITQRGGSTYYADSVKGRFTISRDNAKTTVYLQMNSLKPEDTAVDYCAARTPRGYYYWGQGTQVTVSS”, “high polyreactivity”. Under “QVQLVESGGGLVQAGVSLRLSCAASGNIFRYYVMGWYRQAPGKEREFVAAITSSGGSTYYADSVKGRFTISRDNAKKSFYLQMNSLKPEDSAVYYCAKDYWDPGWAEYDYWGQGTQVTVSS” stands “low polyreactivity”. In the case of “QVQLVESGGGLVQAGGSLRLICAASGSTFTPNDMGWYRQAPGKERELVADISNYADSVKGRFTISRDNAKNTVYLQMNSLKPEDSAVYYCAAEWGGDRYGLYVVSWWYDYWGQGTQVTLSS”, the “polyreactivity (PSR sort gate)” value is “low polyreactivity”. Consider “QVQLVESGGGLVQAGGSLRLSCAASGFTFWRNTMGWYRQAPGKEREFVAGISGSGGSTYYADSVKGRFTISRDNAKNTVYLQMNSLKPEDTAVYYCAAVYRFSRTFYTPGYDYWGQGTQVTVSS”, for which the “polyreactivity (PSR sort gate)” value was “high polyreactivity”. Consider “QVQLVESGGGLVQAGGSLRLSCAASGNIFYVYLMGWYRQAPGKERELVASITSGASTYYADSVKGRFTISRDNAKNTVYLQMNSLKPEDTAVYYCAAEALGVAGDYSTLYIYDYWGQGTQVTVSS”, for which the “polyreactivity (PSR sort gate)” value was “low polyreactivity”. For the sequence “QVQLVESVVGLDQAGGSHRLSCAASGSIFATYAMGWYRHAPGKERELVAAITTRGGSTYYADSVKGRFTISRDNAKNTVYLLMYSLKPEDTAVYFCNALRWWSYGLNYCGQGTQVTVSS”, the “polyreactivity (PSR sort gate)” value is listed as “high polyreactivity”. As to “QVQLVESGGGLVQAGGSLRLICAASGLTFAGYAMGWYRQAPGKERELVAAITYSTGRTYYADSVKGRFTISRDNAKNTVYLQMNSLKPEDTAVYYCAALLRGQDRTMDYWGQGTQVTVSS”, the “polyreactivity (PSR sort gate)” value is reported as “high polyreactivity”. Consider “QVQLVESGGGLVQAGGSLRLSCAASGSIFTTYAMGWYRQAPGKERELVAAISSTSGSTYYADSVKGRFTISGDNAKNTVYLQMTSLKPEDTAVYYCAARGGYWGQGTQVTVSS”, for which the “polyreactivity (PSR sort gate)” value was “low polyreactivity”.

“QVQLVESGGGLVQAGGSLRLSCAASGRIFPTYTMGWYRQAPGKERELVAHINRGGGSTYYADSVKGRFTISRDNAKYTVYLQMNSLKPEDTAVYYCAVDTYAYRGVSYWSERTYYYWGQGTQVTVSS”: the “polyreactivity (PSR sort gate)” value is given as “low polyreactivity”. Regarding “QVQLVESGPGLFQAGGSLRLSCAASGNIFGYNVMAWYRQAPGKERELVAAITWSAGTTNYADSLKGRFTISRDNAKNTVYLQRNSLKPEDTAVYYFAVTWWYQDYDLTCYLYDYWGQGTEVTVSS”, the “polyreactivity (PSR sort gate)” value is reported as “low polyreactivity”.

Source of the values: the nanobody polyreactivity screen of Harvey et al. (2022).
